Results: patent publication US20120090043A1, “TARGETS FOR RETROVIRUS ASSOCIATED DISEASES” (priority 2009, published 2012)

How the values were obtained:
[1] = system: HIV-1 LTR promoter transactivation by HIV-1 Tat; assay: Transactivation assay, HIV-1 LTR luciferase reporter with HIV-1 Tat; type: cell-based; conditions: HEK293 cells co-transfected with pHIV1LTR-Luc, HIV-1 Tat and the human ORF; relative luciferase activity 24 h post-transfection; positive if >=2 or <=0.5 and p<0.05
Summary of the method: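 HEK293 cells (10^4) were calcium-phosphate co-transfected with the HIV-1 LTR-luciferase reporter plus HIV-1 Tat, or the HTLV-1 LTR-luciferase reporter plus HTLV-1 Tax, each with a human ORF expression plasmid. A hit required relative activity ≥2 or ≤0.5 with paired t-test p<0.05.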

[2] = system: HTLV-1 LTR promoter transactivation by HTLV-1 Tax; assay: Transactivation assay, HTLV-1 LTR luciferase reporter with HTLV-1 Tax; type: cell-based; conditions: HEK293 cells co-transfected with pHTLV1LTR-Luc, HTLV-1 Tax and the human ORF; relative luciferase activity 24 h post-transfection; positive if >=2 or <=0.5 and p<0.05

Molecule | HIV_LTR transactiv. [1] [fold change] | HTLV_LTR transactiv. [2] [fold change]
ZNF614: human host interactor protein, Gene ID 80110, expressed from transfected ORF vector (protein) MIKTQESLTLEDVAVEFSWEEWQLLDTAQKNLYRDVMVENYNHLVSLGYQTSKPDVLSKLAHGQEPWTTDAKIQNKNCPGIGKVDSHLQEHSPNQRLLKSVQQCNGQNTLRNIVHLSKTHFPIVQNHDTFDLYRKNLKSSLSLINQKRRHGINNPVEFIGGEKTLLHGKHERTHTKTRFSENAKCIHTKFQVFKHQRTQKIEKPHACIECEQTFLRKSQLIYHENICIQENPGSGQCEKLSRSVLFTKHLKTNTTDKICIPNEYRKGSTVKSSLITHQQTHTEEKSYMCSECGKGFTMKRYLIAHQRTHSGEKPYVCKECGKGFTVKSNLIVHQRTHTGEKPYICSECGKGFTMKRYLVVHQRTHTGEKPYMCSECGKGFTVKSNLIVHQRSHTGEKSYICSECGKGFTVKRTLVIHQRTHTGEKSYICNECGKGFTTKRTLIIHQRTHTGEKPYECNECGKAFSQKICLIQHERCHTGKTPFVCTECGKSYSHKYGLITHQRIHTGEKPYECNECGKAFTTKSVLNVHQRTHTGERPYGCSDCEKAFSHLSNLVKHKKMHTREMGRISQVENSCNGESQLLPYK | 0.28 | 5.24
C10orf3: human host interactor protein, Gene ID 55165, expressed from transfected ORF vector (protein) MSSRSTKDLIKSKWGSKPSNSKSETTLEKLKGEIAHLKTSVDEITSGKGKLTDKERHRLLEKIRVLEAEKEKNAYQLTEKDKEIQRLRDQLKARYSTTTLLEQLEETTREGERREQVLKALSEEKDVLKQQLSAATSRIAELESKTNTLRLSQTVAPNCFNSSINNIHEMEIQLKDALEKNQQWLVYDQQREVYVKGLLAKIFELEKKTETAAHSLPQQTKKPESEGYLQEEKQKCYNDLLASAKKDLEVERQTITQLSFELSEFRRKYEETQKEVHNLNQLLYSQRRADVQHLEDDRHKTEKIQKLREENDIARGKLEEEKKRSEELLSQVQFLYTSLLKQQEEQTRVALLEQQMQACTLDFENEKLDRQHVQHQLHVILKELRKARNQITQLESLKQLHEFAITEPLVTFQGETENREKVAASPKSPTAALNESLVECPKCNIQYPATEHRDLLVHVEYCSK | 2.79 | 0.41
TSC22D4: human host interactor protein, Gene ID 81628, expressed from transfected ORF vector (protein) MSGGKKKSSFQITSVTTDYEGPGSPGASDPPTPQPPTGPPPRLPNGEPSPDPGGKGTPRNGSPPPGAPSSRFRVVKLPHGLGEPYRRGRWTCVDVYERDLEPHSFGGLLEGIRGASGGAGGRSLDSRLELASLGLGAPTPPSGLSQGPTSWLRPPPTSPGPQARSFTGGLGQLVVPSKAKAEKPPLSASSPQQRPPEPETGESAGTSRAATPLPSLRVEAEAGGSGARTPPLSRRKAVDMRLRMELGAPEEMGQVPPLDSRPSSPALYFTHDASLVHKSPDPFGAVAAQKFSLAHSMLAISGHLDSDDDSGSGSLVGIDNKIEQAMDLVKSHLMFAVREEVEVLKEQIRELAERNAALEQENGLLRALASPEQLAQLPSSGVPRLGPPAPNGPSV | 5.43 | 3.75
